The text below walks through data of patent US20110033875A1 (UNIVERSITY OF GEORGIA RESEARCH FOUNDATION, published 2011).

The target in test [1] is glycoproteins from mouse endometrioid ovarian tumors nonadherent to Con A. Nature of the test: lectin blot of Con A-unbound mouse tissue glycoproteins with biotinylated E-PHA, densitometry (FIG. 11A lanes 3 and 4).
In test [2] the target is proteins of human ductal invasive breast carcinoma tissue (cases 10406, 10119, 11827, 2417, 2207). Nature of the test: L-PHA binding to breast tumor tissue proteins, case 2207; scale not defined.
Test [3] shares this target. Put plainly: L-PHA binding to breast tumor tissue proteins, case 2417; scale not defined.
Test [4] shares this target. Put plainly: L-PHA binding to breast tumor tissue proteins, case 10119; scale not defined.
The target is the same in test [5]. Put plainly: L-PHA binding to breast tumor tissue proteins, case 10406; scale not defined.
Test [6] shares this target. Nature of the test: L-PHA binding to breast tumor tissue proteins, case 11827; scale not defined.
The target of test [7] is T1, Glucose-regulated protein 78 immunoprecipitated from human ovarian cancer tissue (human, UniProt P11021 19-654).
T1 construct: also called GRP78
T1 sequence (P11021 19-654 limits assumed): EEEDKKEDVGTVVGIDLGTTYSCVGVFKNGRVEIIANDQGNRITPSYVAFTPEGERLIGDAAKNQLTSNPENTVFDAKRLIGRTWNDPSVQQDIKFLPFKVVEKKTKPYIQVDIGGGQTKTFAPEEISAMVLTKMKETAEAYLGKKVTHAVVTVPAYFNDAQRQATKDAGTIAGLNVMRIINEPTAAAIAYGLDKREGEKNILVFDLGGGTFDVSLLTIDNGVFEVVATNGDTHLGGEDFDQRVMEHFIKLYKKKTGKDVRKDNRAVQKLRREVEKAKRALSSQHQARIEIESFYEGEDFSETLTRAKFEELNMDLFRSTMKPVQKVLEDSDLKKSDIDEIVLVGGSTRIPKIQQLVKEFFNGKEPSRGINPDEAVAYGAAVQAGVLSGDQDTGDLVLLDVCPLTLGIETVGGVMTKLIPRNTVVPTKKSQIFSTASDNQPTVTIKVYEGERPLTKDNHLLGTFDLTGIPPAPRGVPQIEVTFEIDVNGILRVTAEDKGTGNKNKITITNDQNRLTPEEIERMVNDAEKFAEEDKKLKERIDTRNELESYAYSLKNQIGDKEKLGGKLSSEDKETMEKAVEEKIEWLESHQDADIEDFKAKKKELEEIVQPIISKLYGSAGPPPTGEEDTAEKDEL
Nature of the test: GRP78 immunoprecipitated from ovarian cancer tissue, SDS-PAGE, lectin blot.

The target of test [8] is T2, Thrombospondin 1 from serum and tissue of ovarian cancer patients (human, UniProt P07996 19-1170, limits assumed, core fucosylated N-linked glycans (inferred from AAL reactivity)).
T2 construct: also called THBS1; AAL-reactive THBS1
T2 sequence (P07996 19-1170 limits assumed): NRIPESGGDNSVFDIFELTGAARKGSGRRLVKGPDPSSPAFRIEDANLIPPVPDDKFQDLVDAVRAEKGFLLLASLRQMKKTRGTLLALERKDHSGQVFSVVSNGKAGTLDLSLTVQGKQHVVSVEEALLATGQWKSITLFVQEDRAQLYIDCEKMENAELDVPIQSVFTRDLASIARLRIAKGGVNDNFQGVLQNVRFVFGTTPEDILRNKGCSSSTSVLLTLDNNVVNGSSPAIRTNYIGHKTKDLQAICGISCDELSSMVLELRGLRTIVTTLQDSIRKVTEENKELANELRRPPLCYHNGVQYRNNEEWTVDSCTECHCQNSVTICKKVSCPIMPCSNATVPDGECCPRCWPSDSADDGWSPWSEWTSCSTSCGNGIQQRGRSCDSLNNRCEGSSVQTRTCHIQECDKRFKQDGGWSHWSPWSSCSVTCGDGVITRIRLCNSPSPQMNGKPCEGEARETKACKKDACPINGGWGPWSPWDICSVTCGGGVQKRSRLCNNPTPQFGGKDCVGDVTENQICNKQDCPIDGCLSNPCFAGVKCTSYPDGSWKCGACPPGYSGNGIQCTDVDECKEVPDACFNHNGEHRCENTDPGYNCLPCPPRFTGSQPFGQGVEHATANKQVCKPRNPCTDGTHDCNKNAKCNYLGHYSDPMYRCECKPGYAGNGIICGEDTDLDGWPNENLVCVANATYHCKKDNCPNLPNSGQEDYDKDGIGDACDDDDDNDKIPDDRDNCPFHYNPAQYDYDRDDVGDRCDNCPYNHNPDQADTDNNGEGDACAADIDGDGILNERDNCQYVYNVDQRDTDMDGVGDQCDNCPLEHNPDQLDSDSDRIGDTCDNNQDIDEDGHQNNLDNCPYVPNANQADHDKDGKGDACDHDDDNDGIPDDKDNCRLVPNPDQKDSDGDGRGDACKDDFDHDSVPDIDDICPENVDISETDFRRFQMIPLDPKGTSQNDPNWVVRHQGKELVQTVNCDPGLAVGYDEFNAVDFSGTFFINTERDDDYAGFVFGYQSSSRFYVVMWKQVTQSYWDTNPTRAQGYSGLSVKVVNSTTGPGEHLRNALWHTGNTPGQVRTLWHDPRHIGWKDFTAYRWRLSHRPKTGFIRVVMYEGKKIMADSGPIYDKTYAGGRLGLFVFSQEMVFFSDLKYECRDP
Nature of the test: biotinylated AAL precipitation from serum, Western blot with anti-THBS1 (FIG. 19B panel 2). A general note: In western blotting, separated proteins are transferred to a membrane and probed.

Test [9] concerns the target glycoproteins from human endometrioid ovarian tumors (cases 711, 741, 471) nonadherent to Con A. Nature of the test: lectin blot of Con A-unbound glycoproteins, human case 471, biotinylated AAL, densitometry (FIG. 11B lane 4).

In [1], “Phaseolus vulgaris erythroagglutinin (erythroagglutinating phytohemagglutinin), biotinylated (from UniProt P05088 22-275)” gave a level of E-PHA binding for tumor relative to normal (x relative to normal) of 0.2.

For the molecule “Phaseolus vulgaris leukoagglutinin (leukoagglutinating phytohemagglutinin), biotinylated (from UniProt P05087 21-272)”, the L-PHA Level was determined as 9 in test [2]; 10 in test [3]; 4 in [4]; 1 in test [5]; 4 in test [6].

B1: Phaseolus vulgaris erythroagglutinin (erythroagglutinating phytohemagglutinin), biotinylated (other, Phaseolus vulgaris (red kidney bean), UniProt P05088 22-275, looked up)
chain: ASQTSFSFQRFNETNLILQRDATVSSKGQLRLTNVNDNGEPTLSSLGRAFYSAPIQIWDNTTGAVAASPTSFTFNIDVPNNSGPADGLAFVLLPVGSQPKDKGGLLGLFNNYKYDSNAHTVAVEFDTLYNVHWDPKPRHIGIDVNSIKSIKTTTWDFVKGENAEVLITYDSSTKLLVASLVYPSLKTSFIVSDTVDLKSVLPEWVIVGFTATTGITKGNVETNDILSWSFASKLSDGTTSEALNLANFALNQIL
modifications: biotinylated
notes: also called E-PHA; EPHA
Take B1: in test [7], the binding result is “no binding”.

B2: Aleuria aurantia lectin, biotinylated (other, UniProt P18891 2-313, looked up)
chain: PTEFLYTSKIAAISWAATGGRQQRVYFQDLNGKIREAQRGGDNPWTGGSSQNVIGEAKLFSPLAAVTWKSAQGIQIRVYCVNKDNILSEFVYDGSKWITGQLGSVGVKVGSNSKLAALQWGGSESAPPNIRVYYQKSNGSGSSIHEYVWSGKWTAGASFGSTVPGTGIGATAIGPGRLRIYYQATDNKIREHCWDSNSWYVGGFSASASAGVSIAAISWGSTPNIRVYWQKGREELYEAAYGGSWNTPGQIKDASRPTPSLPDTFIAANSSGNIDISVFFQASGVSLQQWQWISGKGWSIGAVVPTGTPAGW
modifications: biotinylated
notes: Commercial fungal lectin; also called AAL
Consider B2, for which the binding result in test [7] is “no binding”; in test [8], “binds”. In test [9], this molecule yielded a fold increase in the level of AAL binding relative to normal of 7 fold.
